According to publication PMC5507214:

Assays:
RNaseH1 D210N;RPA = RNaseH1 D210N;RPA (Homo sapiens;Homo sapiens, UniProt O60930;P27694;P15927;P35244 27-286;1-616;1-270;1-121, D210N|); test: EMSA
RNaseH1 D210N = target: T1, RNaseH1 D210N (Homo sapiens, UniProt O60930 27-286, D210N); test: EMSA
T1 sequence: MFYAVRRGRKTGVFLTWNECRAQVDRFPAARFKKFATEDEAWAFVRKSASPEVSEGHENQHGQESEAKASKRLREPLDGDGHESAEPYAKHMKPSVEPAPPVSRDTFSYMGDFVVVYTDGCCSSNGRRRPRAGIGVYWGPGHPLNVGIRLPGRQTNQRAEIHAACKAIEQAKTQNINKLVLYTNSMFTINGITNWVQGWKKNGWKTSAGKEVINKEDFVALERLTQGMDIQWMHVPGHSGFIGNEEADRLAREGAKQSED

RNaseH1 D210N;RPA, sequence (P27694 whole entry, chain 2 of 3): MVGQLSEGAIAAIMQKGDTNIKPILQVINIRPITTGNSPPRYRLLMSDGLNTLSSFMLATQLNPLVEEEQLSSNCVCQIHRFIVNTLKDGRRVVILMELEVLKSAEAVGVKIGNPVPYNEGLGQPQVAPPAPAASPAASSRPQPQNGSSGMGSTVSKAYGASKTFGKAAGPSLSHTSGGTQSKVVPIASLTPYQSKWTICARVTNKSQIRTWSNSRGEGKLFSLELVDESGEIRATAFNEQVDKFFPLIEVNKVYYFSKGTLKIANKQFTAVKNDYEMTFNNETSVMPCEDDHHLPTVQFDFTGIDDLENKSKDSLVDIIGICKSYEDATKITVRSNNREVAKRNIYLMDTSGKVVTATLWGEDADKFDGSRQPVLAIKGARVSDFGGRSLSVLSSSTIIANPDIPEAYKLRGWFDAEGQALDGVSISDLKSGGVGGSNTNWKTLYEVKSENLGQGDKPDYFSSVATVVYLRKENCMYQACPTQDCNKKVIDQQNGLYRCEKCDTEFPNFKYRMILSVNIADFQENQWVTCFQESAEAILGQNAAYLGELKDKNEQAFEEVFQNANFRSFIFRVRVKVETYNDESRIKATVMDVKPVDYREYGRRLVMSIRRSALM
RNaseH1 D210N;RPA, sequence (P15927 whole entry, chain 3 of 3): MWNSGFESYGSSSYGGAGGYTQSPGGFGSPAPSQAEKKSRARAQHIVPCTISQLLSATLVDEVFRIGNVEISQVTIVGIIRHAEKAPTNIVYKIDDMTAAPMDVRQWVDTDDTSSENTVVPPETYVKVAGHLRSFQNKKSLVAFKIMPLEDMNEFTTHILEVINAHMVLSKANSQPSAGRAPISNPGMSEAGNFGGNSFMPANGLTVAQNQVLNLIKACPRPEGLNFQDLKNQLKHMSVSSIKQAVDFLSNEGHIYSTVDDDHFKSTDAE
RNaseH1 D210N;RPA, sequence (P35244 whole entry, chain 4 of 3): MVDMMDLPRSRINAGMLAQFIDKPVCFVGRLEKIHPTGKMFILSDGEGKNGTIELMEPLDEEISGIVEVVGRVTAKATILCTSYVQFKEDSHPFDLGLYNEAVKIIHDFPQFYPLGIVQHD

B1: R:D (25-bp RNA:DNA hybrid) (DNA:RNA)
RNA: GCAGCUGGCACGACAGGUAUGAAUC
DNA: GATTCATACCTGTCGTGCCAGCTGC
- binding result (RNaseH1 D210N;RPA): binds
- binding result (RNaseH1 D210N): binds
